Legend:
[1] = tested on: HeLa Kyoto; test: melting temperature (median over replicates), in situ; higher = more thermally stable
[2] = tested on: HeLa Kyoto; test: solubility in G1/S (NP-40 vs SDS abundance) (log2 ratio); higher = more soluble; conditions: cell cycle stage: G1/S
[3] = tested on: HeLa Kyoto; test: solubility change mitosis vs G1/S (difference of NP-40 vs SDS log2 ratios) (log2 ratio difference); higher = more soluble in mitosis
[4] = tested on: HeLa Kyoto; test: thermal stability score vs G1/S (z-score of summed log2 fold changes over temperatures); higher = more thermally stable than in G1/S
[5] = cell cycle stage: early G1 (4.5 h after nocodazole release)
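Throughout, for melting temperature (median over replicates), in situ: HeLa Kyoto cells synchronized by double thymidine or nocodazole block, proteins quantified by TMT10plex mass spectrometry, three independent biological replicates.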
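Throughout, for solubility change mitosis vs G1/S (difference of NP-40 vs SDS log2 ratios): synchronized HeLa Kyoto cells (double thymidine block for G1/S, nocodazole release for mitosis), protein amounts in NP-40 versus SDS lysates quantified by mass spectrometry, three biological replicates.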
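Throughout, for solubility in G1/S (NP-40 vs SDS abundance): HeLa Kyoto cells arrested at G1/S by double thymidine block, proteins quantified by TMT10plex mass spectrometry in mild NP-40 versus SDS extracts, three biological replicates.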
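Throughout, for thermal stability score vs G1/S (z-score of summed log2 fold changes over temperatures): synchronized HeLa Kyoto cells, proteins quantified by TMT10plex mass spectrometry, three biological replicates, mitosis taken 0.5 h after nocodazole release, G1/S directly after double thymidine block.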

Sequence	melting temperature ([1]; cell cycle stage: G1/S) [°C]	melting temperature ([1]; cell cycle stage: mitosis) [°C]	solubility in G1/S (log2) [2]	solubility change mitosis (log2) [3]	thermal stability score [4, 5]	thermal stability score ([4]; cell cycle stage: mitosis)
MSRPRKRLAGTSGSDKGLSGKRTKTENSGEALAKVEDSNPQKTSATKNCLKNLSSHWLMKSEPESRLEKGVDVKFSIEDLKAQPKQTTCWDGVRNYQARNFLRAMKLGEEAFFYHSNCKEPGIAGLMKIVKEAYPDHTQFEKNNPHYDPSSKEDNPKWSMVDVQFVRMMKRFIPLAELKSYHQAHKATGGPLKNMVLFTRQRLSIQPLTQEEFDFVLSLEEKEPS [THYN1]	47.3	51.3	0.389	0.199	-1.19	-1.36
MSAYPKSYNPFDDDGEDEGARPAPWRDARDLPDGPDAPADRQQYLRQEVLRRAEATAASTSRSLALMYESEKVGVASSEELARQRGVLERTEKMVDKMDQDLKISQKHINSIKSVFGGLVNYFKSKPVETPPEQNGTLTSQPNNRLKEAISTSKEQEAKYQASHPNLRKLDDTDPVPRGAGSAMSTDAYPKNPHLRAYHQKIDSNLDELSMGLGRLKDIALGMQTEIEEQDDILDRLTTKVDKLDVNIKSTERKVRQL [SNAP29]	52.7	52.7	0.394	0.314	-4.76	-2.04
MAPMGIRLSPLGVAVFCLLGLGVLYHLYSGFLAGRFSLFGLGGEPGGGAAGPAAAADGGTVDLREMLAVSVLAAVRGGDEVRRVRESNVLHEKSKGKTREGAEDKMTSGDVLSNRKMFYLLKTAFPSVQINTEEHVDAADQEVILWDHKIPEDILKEVTTPKEVPAESVTVWIDPLDATQEYTEDLRKYVTTMVCVAVNGKPMLGVIHKPFSEYTAWAMVDGGSNVKARSSYNEKTPRIVVSRSHSGMVKQVALQTFGNQTTIIPAGGAGYKVLALLDVPDKSQEKADLYIHVTYIKKWDICAGNAILKALGGHMTTLSGEEISYTGSDGIEGGLLASIRMNHQALVRKLPDLEKTGHK [IMPAD1]	59.1	58.9	0.145	-0.132	0.124	-1.11
MAVFDTPEEAFGVLRPVCVQLTKTQTVENVEHLQTRLQAVSDSALQELQQYILFPLRFTLKTPGPKRERLIQSVVECLTFVLSSTCVKEQELLQELFSELSACLYSPSSQKPAAVSEELKLAVIQGLSTLMHSAYGDIILTFYEPSILPRLGFAVSLLLGLAEQEKSKQIKIAALKCLQVLLLQCDCQDHPRSLDELEQKQLGDLFASFLPGISTALTRLITGDFKQGHSIVVSSLKIFYKTVSFIMADEQLKRISKVQAKPAVEHRVAELMVYREADWVKKTGDKLTILIKKIIECVSVHPHWKVRLELVELVEDLLLKCSQSLVECAGPLLKALVGLVNDESPEIQAQCNKVLRHFADQKVVVGNKALADILSESLHSLATSLPRLMNSQDDQGKFSTLSLLLGYLKLLGPKINFVLNSVAHLQRLSKALIQVLELDVADIKIVEERRWNSDDLNASPKTSATQPWNRIQRRYFRFFTDERIFMLLRQVCQLLGYYGNLYLLVDHFMELYHQSVVYRKQAAMILNELVTGAAGLEVEDLHEKHIKTNPEELREIVTSILEEYTSQENWYLVTCLETEEMGEELMMEHPGLQAITSGEHTCQVTSFLAFSKPSPTICSMNSNIWQICIQLEGIGQFAYALGKDFCLLLMSALYPVLEKAGDQTLLISQVATSTMMDVCRACGYDSLQHLINQNSDYLVNGISLNLRHLALHPHTPKVLEVMLRNSDANLLPLVADVVQDVLATLDQFYDKRAASFVSVLHALMAALAQWFPDTGNLGHLQEQSLGEEGSHLNQRPAALEKSTTTAEDIEQFLLNYLKEKDVADGNVSDFDNEEEEQSVPPKVDENDTRPDVEPPLPLQIQIAMDVMERCIHLLSDKNLQIRLKVLDVLDLCVVVLQSHKNQLLPLAHQAWPSLVHRLTRDAPLAVLRAFKVLRTLGSKCGDFLRSRFCKDVLPKLAGSLVTQAPISARAGPVYSHTLAFKLQLAVLQGLGPLCERLDLGEGDLNKVADACLIYLSVKQPVKLQEAARSVFLHLMKVDPDSTWFLLNELYCPVQFTPPHPSLHPVQLHGASGQQNPYTTNVLQLLKELQ [TTI1]	49.6	49.9	-0.12	-0.179	0.152	0.696
MLGKGVVGGGGGTKAPKPSFVSYVRPEEIHTNEKEVTEKEVTLHLLPGEQLLCEASTVLKYVQEDSCQHGVYGRLVCTDFKIAFLGDDESALDNDETQFKNKVIGENDITLHCVDQIYGVFDEKKKTLFGQLKKYPEKLIIHCKDLRVFQFCLRYTKEEEVKRIVSGIIHHTQAPKLLKRLFLFSYATAAQNNTVTDPKNHTVMFDTLKDWCWELERTKGNMKYKAVSVNEGYKVCERLPAYFVVPTPLPEENVQRFQGHGIPIWCWSCHNGSALLKMSALPKEQDDGILQIQKSFLDGIYKTIHRPPYEIVKTEDLSSNFLSLQEIQTAYSKFKQLFLIDNSTEFWDTDIKWFSLLESSSWLDIIRRCLKKAIEITECMEAQNMNVLLLEENASDLCCLISSLVQLMMDPHCRTRIGFQSLIQKEWVMGGHCFLDRCNHLRQNDKEEVPVFLLFLDCVWQLVHQHPPAFEFTETYLTVLSDSLYIPIFSTFFFNSPHQKDTNMGREGQDTQSKPLNLLTVWDWSVQFEPKAQTLLKNPLYVEKPKLDKGQRKGMRFKHQRQLSLPLTQSKSSPKRGFFREETDHLIKNLLGKRISKLINSSDELQDNFREFYDSWHSKSTDYHGLLLPHIEGPEIKVWAQRYLRWIPEAQILGGGQVATLSKLLEMMEEVQSLQEKIDERHHSQQAPQAEAPCLLRNSARLSSLFPFALLQRHSSKPVLPTSGWKALGDEDDLAKREDEFVDLGDV [MTMR12]	56.1	56	-0.0977	-0.11	-0.744	-0.447
MAAPRPSPAISVSVSAPAFYAPQKKFGPVVAPKPKVNPFRPGDSEPPPAPGAQRAQMGRVGEIPPPPPEDFPLPPPPLAGDGDDAEGALGGAFPPPPPPIEESFPPAPLEEEIFPSPPPPPEEEGGPEAPIPPPPQPREKVSSIDLEIDSLSSLLDDMTKNDPFKARVSSGYVPPPVATPFSSKSSTKPAAGGTAPLPPWKSPSSSQPLPQVPAPAQSQTQFHVQPQPQPKPQVQLHVQSQTQPVSLANTQPRGPPASSPAPAPKFSPVTPKFTPVASKFSPGAPGGSGSQPNQKLGHPEALSAGTGSPQPPSFTYAQQREKPRVQEKQHPVPPPAQNQNQVRSPGAPGPLTLKEVEELEQLTQQLMQDMEHPQRQNVAVNELCGRCHQPLARAQPAVRALGQLFHIACFTCHQCAQQLQGQQFYSLEGAPYCEGCYTDTLEKCNTCGEPITDRMLRATGKAYHPHCFTCVVCARPLEGTSFIVDQANRPHCVPDYHKQYAPRCSVCSEPIMPEPGRDETVRVVALDKNFHMKCYKCEDCGKPLSIEADDNGCFPLDGHVLCRKCHTARAQT [ZYX]	55.9	65.5	0.412	-0.128	-1.65	0.522
MSASAPAAEGEGTPTQPASEKEPEMPGPREESEEEEDEDDEEEEEEEKEKSLIVEGKREKKKVERLTMQVSSLQREPFTIAQGKGQKLCEIERIHFFLSKKKTDELRNLHKLLYNRPGTVSSLKKNVGQFSGFPFEKGSVQYKKKEEMLKKFRNAMLKSICEVLDLERSGVNSELVKRILNFLMHPKPSGKPLPKSKKTCSKGSKKERNSSGMARKAKRTKCPEILSDESSSDEDEKKNKEESSDDEDKESEEEPPKKTAKREKPKQKATSKSKKSVKSANVKKADSSTTKKNQNSSKKESESEDSSDDEPLIKKLKKPPTDEELKETIKKLLASANLEEVTMKQICKKVYENYPTYDLTERKDFIKTTVKELIS	48.8	50.7	-0.0398	0.338	7.97	13.2
MPEEMDKPLISLHLVDSDSSLAKVPDEAPKVGILGSGDFARSLATRLVGSGFKVVVGSRNPKRTARLFPSAAQVTFQEEAVSSPEVIFVAVFREHYSSLCSLSDQLAGKILVDVSNPTEQEHLQHRESNAEYLASLFPTCTVVKAFNVISAWTLQAGPRDGNRQVPICGDQPEAKRAVSEMALAMGFMPVDMGSLASAWEVEAMPLRLLPAWKVPTLLALGLFVCFYAYNFVRDVLQPYVQESQNKFFKLPVSVVNTTLPCVAYVLLSLVYLPGVLAAALQLRRGTKYQRFPDWLDHWLQHRKQIGLLSFFCAALHALYSFCLPLRRAHRYDLVNLAVKQVLANKSHLWVEEEVWRMEIYLSLGVLALGTLSLLAVTSLPSIANSLNWREFSFVQSSLGFVALVLSTLHTLTYGWTRAFEESRYKFYLPPTFTLTLLVPCVVILAKALFLLPCISRRLARIRRGWERESTIKFTLPTDHALAEKTSHV [STEAP3]	53.3	52.4	-0.128	-0.0119	-0.269	-2.25
MHRRGVGAGAIAKKKLAEAKYKERGTVLAEDQLAQMSKQLDMFKTNLEEFASKHKQEIRKNPEFRVQFQDMCATIGVDPLASGKGFWSEMLGVGDFYYELGVQIIEVCLALKHRNGGLITLEELHQQVLKGRGKFAQDVSQDDLIRAIKKLKALGTGFGIIPVGGTYLIQSVPAELNMDHTVVLQLAEKNGYVTVSEIKASLKWETERARQVLEHLLKEGLAWLDLQAPGEAHYWLPALFTDLYSQEITAEEAREALP [SNF8]	52.9	51.5	0.377	0.0161	-0.788	-0.397
MAKPAQGAKYRGSIHDFPGFDPNQDAEALYTAMKGFGSDKEAILDIITSRSNRQRQEVCQSYKSLYGKDLIADLKYELTGKFERLIVGLMRPPAYCDAKEIKDAISGIGTDEKCLIEILASRTNEQMHQLVAAYKDAYERDLEADIIGDTSGHFQKMLVVLLQGTREEDDVVSEDLVQQDVQDLYEAGELKWGTDEAQFIYILGNRSKQHLRLVFDEYLKTTGKPIEASIRGELSGDFEKLMLAVVKCIRSTPEYFAERLFKAMKGLGTRDNTLIRIMVSRSELDMLDIREIFRTKYEKSLYSMIKNDTSGEYKKTLLKLSGGDDDAAGQFFPEAAQVAYQMWELSAVARVELKGTVRPANDFNPDADAKALRKAMKGLGTDEDTIIDIITHRSNVQRQQIRQTFKSHFGRDLMTDLKSEISGDLARLILGLMMPPAHYDAKQLKKAMEGAGTDEKALIEILATRTNAEIRAINEAYKEDYHKSLEDALSSDTSGHFRRILISLATGHREEGGENLDQAREDAQVAAEILEIADTPSGDKTSLETRFMTILCTRSYPHLRRVFQEFIKMTNYDVEHTIKKEMSGDVRDAFVAIVQSVKNKPLFFADKLYKSMKGAGTDEKTLTRIMVSRSEIDLLNIRREFIEKYDKSLHQAIEGDTSGDFLKALLALCGGED [ANXA6]	50	50	0.275	-0.172	5.43	4.61
MAALKSWLSRSVTSFFRYRQCLCVPVVANFKKRCFSELIRPWHKTVTIGFGVTLCAVPIAQKSEPHSLSSEALMRRAVSLVTDSTSTFLSQTTYALIEAITEYTKAVYTLTSLYRQYTSLLGKMNSEEEDEVWQVIIGARAEMTSKHQEYLKLETTWMTAVGLSEMAAEAAYQTGADQASITARNHIQLVKLQVEEVHQLSRKAETKLAEAQIEELRQKTQEEGEERAESEQEAYLRED [DIABLO]	54.9	53.3	-0.173	0.345	-0.685	-1.02
MSFRKVNIIILVLAVALFLLVLHHNFLSLSSLLRNEVTDSGIVGPQPIDFVPNALRHAVDGRQEEIPVVIAASEDRLGGAIAAINSIQHNTRSNVIFYIVTLNNTADHLRSWLNSDSLKSIRYKIVNFDPKLLEGKVKEDPDQGESMKPLTFARFYLPILVPSAKKAIYMDDDVIVQGDILALYNTALKPGHAAAFSEDCDSASTKVVIRGAGNQYNYIGYLDYKKERIRKLSMKASTCSFNPGVFVANLTEWKRQNITNQLEKWMKLNVEEGLYSRTLAGSITTPPLLIVFYQQHSTIDPMWNVRHLGSSAGKRYSPQFVKAAKLLHWNGHLKPWGRTASYTDVWEKWYIPDPTGKFNLIRRYTEISNIK [GLT8D1]	53	53	0.144	0.024	3.31	5.82
